# Measurements: patent US20210275684A1 (MONOJUL, published 2021)
# Numbering of substitutions follows the chain as printed. Names and notes keep the numbering of the source.
# B1: AS04498 antibody (affinity matured, full length IgG) (antibody, V domains shown)
# VH: EVQLVQSGAEVKKPGASVKVSCKASGYTFTYYAMHWVRQAPGQRLEWMGWINAGNGNTKYSQKFQGRVTITRDTSASTAYMELSSLRSEDTAVYYCARDISYGSFDYWGQGTLVTVSS
# VL: SSELTQDPAVSVALGQTVRITCQGDSLRSNYANWYQQKPGQAPVLVIYGQFNRPSGIPDRFSGSSSGNTASLTITGAQAADEADYYCDSRVSTGIHVVFGGGTKLTVLG
# notes: also called ASO4498; AM
# B2: M909 IgG (parent monoclonal antibody m909, full length IgG) (antibody, V domains shown, not shown: a dimerising Fc or GST)
# VH: B1 VH with Y31S
# VL: B1 VL with F51N, I95N
# notes: also called m909 antibody
# B3: Clone D (affinity matured antibody from the combinatorial library) (Fab, V domains shown)
# VH: B1 VH
# VL: B1 VL with R53L
# notes: Format in the screen not expressly stated
# B4: Clone C (affinity matured antibody from the combinatorial library) (Fab, V domains shown)
# VH: B1 VH with N57F
# VL: B1 VL
# notes: as for B3
# B5: Clone A (affinity matured antibody from the combinatorial library) (Fab, V domains shown)
# VH: B1 VH with N57F
# VL: B1 VL with R53L
# notes: as for B3
# B6: Clone G (affinity matured antibody from the combinatorial library) (Fab, V domains shown)
# VH: B1 VH with Y31I
# VL: B1 VL with R53L
# notes: as for B3
# B7: Clone O (affinity matured antibody from the combinatorial library) (Fab, V domains shown)
# VH: B1 VH
# VL: B1 VL with F51N, R53L, I95N
# notes: as for B3
# B8: Clone J (affinity matured antibody from the combinatorial library) (Fab, V domains shown)
# VH: B1 VH with N57F
# VL: B1 VL with F51N
# notes: as for B3
# B9: Clone M (affinity matured antibody from the combinatorial library) (Fab, V domains shown)
# VH: B1 VH with Y31I
# VL: B1 VL with R53L, I95N
# notes: as for B3
# B10: Clone L (affinity matured antibody from the combinatorial library) (Fab, V domains shown)
# VH: B1 VH with Y31I
# VL: B1 VL with I95N
# notes: as for B3
# B11: Clone P (affinity matured antibody from the combinatorial library) (Fab, V domains shown)
# VH: B1 VH with Y31I, N57F
# VL: B1 VL with F51N, I95N
# notes: as for B3
# B12: Clone F (affinity matured antibody from the combinatorial library) (Fab, V domains shown)
# VH: B1 VH
# VL: B1 VL with R53L, I95N
# notes: as for B3
# B13: Clone I (affinity matured antibody from the combinatorial library) (Fab, V domains shown)
# VH: B1 VH with Y31I
# VL: B1 VL with F51N, R53L
# notes: as for B3
# B14: Clone B (affinity matured antibody from the combinatorial library) (Fab, V domains shown)
# VH: B1 VH with A16V, N57F
# VL: B1 VL with R53L
# notes: A16V was placed on the heavy chain; Format in the screen not expressly stated
# B15: Clone H (affinity matured antibody from the combinatorial library) (Fab, V domains shown)
# VH: B1 VH with Y31I
# VL: B1 VL
# notes: as for B3
# Target: T1, recombinant human folate receptor beta (FRβ), residues 22 to 236, with ADPG at the N-terminus and five … (human, UniProt P14207 22-236)
# T1 construct: also called hFRβ; recombinant FRβ
# Experiment: SPR, Biacore T200, antibody captured through Fc, hFRβ as analyte
# Method: (§1) To begin the analysis of the affinity matured antibodies, AS04498 was selected for further analysis. Antibody affinity to antigen protein was determined using a Surface Plasmon Resonance (SPR) biosensor, Biacore T200 (GE Healthcare). Antibody was immobilized on the sensor chip through Fc capture method. Antigen protein was used as the analyte. The data of dissociation (kd) and association (k0) rate constants were obtained using Biacore T200 evaluation software. The equilibrium dissociation constants (KD) were calculated from the ratio of kd over k0.
# T1 sequence (P14207 other isoform, or with tags, fused parts or gaps): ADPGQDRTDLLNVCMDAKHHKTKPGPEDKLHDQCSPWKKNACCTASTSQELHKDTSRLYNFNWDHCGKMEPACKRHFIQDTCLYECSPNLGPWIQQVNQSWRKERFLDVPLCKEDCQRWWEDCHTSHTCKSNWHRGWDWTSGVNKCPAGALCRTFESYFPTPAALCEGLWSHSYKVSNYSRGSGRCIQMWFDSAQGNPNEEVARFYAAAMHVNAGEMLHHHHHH
Kd [nM],koff [s⁻¹],kon [M⁻¹ s⁻¹],Binder
2.5,0.000144,57700,B1
92.4,0.00592,64100,B2

# Target: T1, recombinant human folate receptor beta …
# Experiment: SPR, Biacore T200; affinity relative to the chimeric IgG control
# Method: as §1
row,Fold Increase [fold],Binder
1,38,B1

# Target: T1, recombinant human folate receptor beta …
# Experiment: combinatorial library screen: ELISA on coated antigen, then affinity (dissociation rate) ranking
row,binding result,Binder
1,binds,B3
2,binds,B4
3,binds,B5
4,binds,B6
5,binds,B7
6,binds,B8
7,binds,B9
8,binds,B10
9,binds,B11
10,binds,B12
11,binds,B13
12,binds,B14
13,binds,B15

# Target: T1, recombinant human folate receptor beta …
# Experiment: affinity measurement of full length IgG on recombinant FRβ (FIGS. 6A-6C, summarised in Table 5); reference: Chimeric IgG. The sentence says 'higher' of the KD, but the KD is lower, so the affinity is higher
# Method: as §1
row,fold change of KD against the chimeric IgG control [fold],Binder
1,38,B1
